How the values were obtained:
N36 (HIV-1), P04578 [1] = experiment: estimated Kd; method not stated
[2] = molecular target: Res 2 (L33S) Env from HIV-1 strain HXB2 (HIV-1 strain HXB2), P04578; experiment: cell-based or functional assay
[3] = molecular target: Res 4 (SDTV) Env from HIV-1 strain HXB2 (HIV-1 strain HXB2), P04578; experiment: cell-based or functional assay
[4] = molecular target: wild type Env (gp120/gp41) from HIV-1 strain HXB2 (HIV-1 strain HXB2), P04578; experiment: cell-based or functional assay
[5] = molecular target: V549E mutant Env (Res1) from HIV-1 strain HXB2 (HIV-1 strain HXB2), P04578; experiment: cell-based or functional assay
[6] = molecular target: Res 3 Env (N637K) from HIV-1 strain HXB2 (HIV-1 strain HXB2), P04578; experiment: cell-based or functional assay
N36 (HIV-1), P04578 [7] = experiment: estimated Kd; method not stated; reference is wild type C37 on N36

B1: C37-KYI (peptide)
peptide: HTTWMEWDREINKYISLIHSLIEESQNQQEKNEQELL
modifications: not checked
In the case of B1, the Kd (N36 (HIV-1), P04578 [1]) is reported as 0.04 pM, the IC50, nM; inhibitory potency against pseudotyped HIV-1 [2] is reported as 1 nM and the IC50, nM; inhibitory potency against pseudotyped HIV-1 [3] is reported as 0.6 nM. The IC50, nM; inhibitory potency against pseudotyped HIV-1 [4] was 1 nM, the IC50, nM; inhibitory potency against pseudotyped HIV-1 [5] was 4.2 nM and the IC50, nM; inhibitory potency against pseudotyped HIV-1 [6] was 4.1 nM. For the same binder, the fold lower Kd than wild type C37 (N36 (HIV-1), P04578 [7]) was greater than 20 fold.
